Assay results published in US10472401B2, “Peptides and combination of peptides for use in immunotherapy against ovarian cancer and other cancers” (immatics biotechnologies GmbH, priority 2015, dated 2019).

Biological target: HLA-A*02:01 (Homo sapiens, UniProt P04439, D140Y/D185E/D98H/E176V/E277Q/G131W/G231S/I119V/I121R/I166T/I218V/L300P/L318F/N151K/N90K/P208A/P217A/Q86G/Q94H/R138H/R169H/T345S)
Experiment: MHC binding assay (UV-ligand exchange, ELISA of stabilized MHC complexes)
Settings: MHC class I binding score; binding to HLA-A*02:01 ranged by peptide exchange yield (UV-ligand exchange, ELISA)
How it was run: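 Binding scored as exchange yield, detected via β2m of stabilized complexes in an HRP/TMB ELISA read at 450 nm after streptavidin capture of 100-fold diluted monomers for 1 h at 37 °C. Complexes came from UV irradiation cleaving a photolabile peptide, exchanged for the candidate.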

Substance | Peptide exchange
393 (GLLDTQTSQVLTA; listed as Homo sapiens) [compound 393] | ″++″ (≥20% = ++)
57 (TLAELQPPVQL; listed as Homo sapiens) [compound 57] | ″+++″ (≥50% = +++)
200 (LLFGSVQEV; listed as Homo sapiens) [compound 200] | ″+++″ (≥50% = +++)
367 (SLQNHNHQL; listed as Homo sapiens) [compound 367] | ″+++″ (≥50% = +++)
197 (ALGPEGGRV; listed as Homo sapiens) [compound 197] | ″++″ (≥20% = ++)
582 (TLCDVILMV; listed as Homo sapiens) [compound 582] | ″+++″ (≥50% = +++)
371 (FLQAHLHTA; listed as Homo sapiens) [compound 371] | ″++++″ (≥75% = ++++)
96 (YIFTDNPAAV; listed as Homo sapiens) [compound 96] | ″+++″ (≥50% = +++)
5 (HLTEVYPEL; listed as Homo sapiens) [compound 5] | ″+++″ (≥50% = +++)
285 (QLLHVGVTV; listed as Homo sapiens) [compound 285] | ″+++″ (≥50% = +++)
506 (KLLGKVETA; listed as Homo sapiens) [compound 506] | ″+++″ (≥50% = +++)
613 (RLLPPGAVVAV; listed as Homo sapiens) [compound 613] | ″+++″ (≥50% = +++)
100 (YLLSTNAQL; listed as Homo sapiens) [compound 100] | ″++++″ (≥75% = ++++)
4 (GIMEHITKI; listed as Homo sapiens) [compound 4] | ″++++″ (≥75% = ++++)
464 (ALNDCIYSV; listed as Homo sapiens) [compound 464] | ″+++″ (≥50% = +++)
376 (AMFESSQNVLL; listed as Homo sapiens) [compound 376] | ″++″ (≥20% = ++)

Substance | Peptide exchange
195 (GLFADLLPRL; listed as Homo sapiens) [compound 195] | ″+++″ (≥50% = +++)
584 (ALAEVAAMENV; listed as Homo sapiens) [compound 584] | ″+++″ (≥50% = +++)
325 (FIMPATVADATAV; listed as Homo sapiens) [compound 325] | ″+++″ (≥50% = +++)
104 (STMEQNFLL; listed as Homo sapiens) [compound 104] | ″++++″ (≥75% = ++++)
284 (ILLSQTTGV; listed as Homo sapiens) [compound 284] | ″+++″ (≥50% = +++)
500 (SLMEDQVLQL; listed as Homo sapiens) [compound 500] | ″+++″ (≥50% = +++)
335 (YSLSSVVTV; listed as Homo sapiens) [compound 335] | ″+++″ (≥50% = +++)
157 (SLNDEVPEV; listed as Homo sapiens) [compound 157] | ″++″ (≥20% = ++)
550 (FLYDEIEAEVNL; listed as Homo sapiens) [compound 550] | ″+++″ (≥50% = +++)
267 (ALQDFLLSV; listed as Homo sapiens) [compound 267] | ″+++″ (≥50% = +++)
45 (SLWQDIPDV; listed as Homo sapiens) [compound 45] | ″+++″ (≥50% = +++)
547 (TLDITPHTV; listed as Homo sapiens) [compound 547] | ″+++″ (≥50% = +++)
82 (FLSSVTYNL; listed as Homo sapiens) [compound 82] | ″+++″ (≥50% = +++)
109 (IILSILEQA; listed as Homo sapiens) [compound 109] | ″++++″ (≥75% = ++++)
20 (RMIEYFIDV; listed as Homo sapiens) [compound 20] | ″+++″ (≥50% = +++)
85 (KMSELRVTL; listed as Homo sapiens) [compound 85] | ″+++″ (≥50% = +++)
